Biological target: syntrophin PDZ domain (UniProt Q61234)

VKESLV ligand (syntrophin PDZ ligand) (peptide)
Kd: 1970 nM

Reference: paper PMC10528910
